Experimental data taken from patent US20060134116A1, “Ca 125 tumor antigen function and uses thereof” (Universite De Sherbrooke, priority 2002, published 2006).

Experiments:
purified human CA125 = experiment: CA125 binding analysis by ELISA (periplasmic extracts); conditions: commercially purified human CA125
Description: A) CA125 binding activity of anti-CA125 OC125, VK-8-1.9 and VK-8-4.5 scFvs present in periplasmic extracts of bacteria as well as anti-Bcl2 4D7 scFv compared to parental Mabs OC125 and VK-8 and to PBS and periplasmic extract from bacteria, uninduced, IPTG-induced and controls.
The inventors constructed single-chain antibody libraries derived from the OC125 and VK-8 hybridoma cell lines specific for CA125. The two scFv libraries were screened for CA125 binding activity by ELISA using commercially purified human CA125. […] The inventors hypothesized that if those scFvs (CA125 binders) once expressed intracellularly were localized to and retained within the ER or the Golgi then CA125 antigen would be entrapped during synthesis and thus be unable to localize at cell surface and interact with other intracellular and/or extracellular proteins to achieve its function(s). The scFvs were targeted to the ER or trans-median Golgi by sequence fusion with an Igκ secretion leader and a KDEL signal or fusion with the N-terminal 81 amino acids of human beta 1,4-galactosyltransferase, a protein resident of the trans-medial Golgi (47-49) in addition ot a c-myc tag at the C-terminus.
Binding analysis by ELISA—Periplasmic extracts were prepared as previously described (29). […] The OD was read at 450 ηm in an ELISA plate reader.

CA125 [1] = molecular target: T1, CA125 (Homo sapiens, UniProt Q8WXI7); experiment: Immunofluorescence of CA125 at the cell surface, transient transfection of OVCAR-3 cells; assay type: cell-based; conditions: transiently transfected OVCAR-3 cells
T1 construct: human ovarian cancer cell lines OVCAR-3 (high expresser of CA125); endogenous in cells; host or cells: NIH:OVCAR-3
Description: B) NIH:OVCAR-3 cellswere transiently transfected with pSTCF.Golgi-OC125-3.11 or pSTCF.KDEL-VK-8-1.9 constructs and 48 hrs later the cells were fixed in ice-cold methanol. Expression of scFvs and CA125 was detected using the anti-c-myc A14 polyclonal antibody and anti-CA125 M11 monoclonal antibody. Oregon green anti-rabbit and Texas red anti-mouse secondary antibodies were used.
Anti-CA125 scFvs act therefore act as potent negative modulators of CA125.
Immunofluorescence—Transiently transfected NIH-OVCAR-3 cells or stable NIH:OVCAR-3 clones expressing the various anti-CA125 scFvs were grown on glass slide until a 50% confluence was reached. […] Slides were next washed 3 times in cold PBS, incubated for 30 min at room temperature with anti-mouse or anti-rabbit secondary antibodies coupled to Texas Red or Oregon green (1:1000), washed with PBS and mounted for visualization by fluorescence microscopy. Expression of the various anti-CA125 scFvs and CA125 was detected using anti-c-myc antibody (9E10, 1:500) and OC125 antibody (1:500). Localization of the scFvs was determined by comparing their pattern of expression with that of calreticulin and ADP-ribosylation factor for ER and Golgi localization using anti-calreticulin antibody (1:10000) anti-calreticulin and anti-ADP-ribosylation factor (1:400).

CA125 [2] = molecular target: T1, CA125; experiment: Co-immunoprecipitation of scFvs with anti-CA125 MAbs from transiently transfected NIH:OVCAR-3 cells; assay type: binding; conditions: transient transfection in NIH:OVCAR-3
Description: C) Immunoprecipitation and co-immunoprecipitation of Golgi- and ER-targeted OC125-3.11 scFv from transient transfection of pSTCF.GOLGI-OC125-3.11 and pSTCF.KDEL-OC125-3.11 in NIH:OVCAR-3 human ovarian cancer cells using anti-c-myc, anti-CA125 Mabs OC125 and VK-8, western blot probed with anti-c-myc 9E10 antibody.
D) Immunoprecipitation and co-immunoprecipitation of Golgi- and ER-targeted VK-8-1.9 scFv from transient transfection of pSTCF-GOLGI-VK8-1.9 and pSTCF.KDEL-VK8-1.9 in NIH:OVCAR-3 human ovarian cancer cells using anti-c-myc, anti-CA125 Mabs OC125 and VK-8, Western blot probed with anti-c-myc 9E10 antibody.
E) Immunoprecipitation and co-immunoprecipitation of ER-targeted VK-8-4.5 scFv from transient transfection of pSTCF.KDEL-VK8-4.5 in NIH:OVCAR-3 human ovarian cancer cells using anti-c-myc, anti-CA125 Mabs OC125 and VK-8, western blot prober with anti-c-myc 9E10 antibody. […]
Immunoprecipitation—NIH-OVCAR-3 cells were transiently transfected with the various scFv constructs using commercially available FuGene 6 transfection agent using the manufacturer's instruction. […] Protein concentration was measured by the Bradford method using the Bio-Rad protein assay according to the instruction provided by the manufacturer. […] Agarose or sepharose beads were pelleted and supernatants were analyzed by immunoblots for the presence of the various scFvs.

CA125 binding activity by ELISA (purified human CA125): bound to CA125
co-immunoprecipitation with CA125 using anti-CA125 OC125 and VK-8 MAbs (CA125 [2]): co-immunoprecipitated
B1: OC125-3.11: anti-CA125 single-chain antibody derived from the OC 125 monoclonal antibody, fragment coded by SEQ ID NO 2 (protein)
chain: QVQLQQSGTVLARPGASVKMSLQASGYTFTSYWMHWVKQRPGQGLEWIGAIYPGNSDTSYNQKFKGKAKLTAVTSTSTAYMELSSLTNEDSAVYYCTRSYDWYFDVWGQGTTVTVSSGGGGSGGGGSGGGGSDIELTQSPAILSVSPGERVSFSCRASQSIGTDMHWYQQRTNGSPRLLIKYASESISGIPSRFSGSGSGTDFTLSINSVESEDIADYYCQQSYSWPLTFGAGTKLEIK
modifications: Golgi targeting; VH-linker-VL portion of OC125-3.11
expression of CA125 at the cell surface (CA125 [1]): lost expression of CA125 at the cell surface
